Experimental findings from patent US20240050568A1 (NANJING IASO BIOTECHNOLOGY, published 2024) are described below.

Assay [1] has as its target T1, CD5 antigen (Acro, CD5-H52H5) (UniProt P06127 25-371).
T1 construct: Bought protein
T1 sequence (looked up): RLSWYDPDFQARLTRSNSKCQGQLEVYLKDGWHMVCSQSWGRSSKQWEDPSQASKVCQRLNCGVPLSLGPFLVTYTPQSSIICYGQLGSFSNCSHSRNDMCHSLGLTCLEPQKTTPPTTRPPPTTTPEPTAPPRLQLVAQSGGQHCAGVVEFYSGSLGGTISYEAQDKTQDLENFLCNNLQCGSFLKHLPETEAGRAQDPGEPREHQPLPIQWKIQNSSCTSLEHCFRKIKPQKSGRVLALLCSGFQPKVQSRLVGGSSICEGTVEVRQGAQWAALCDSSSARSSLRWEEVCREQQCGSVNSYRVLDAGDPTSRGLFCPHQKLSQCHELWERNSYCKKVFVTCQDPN
The assay is described as follows: BLI (Octet), IgG loaded on the biosensor, CD5 antigen 100 to 1.563 nM, 1:1 model. Background: Biolayer interferometry detects binding as a change in optical thickness at a sensor tip.

Assay [2] has as its target T2, human CD5 expressed on cells (human, UniProt P06127 25-495).
T2 sequence (looked up): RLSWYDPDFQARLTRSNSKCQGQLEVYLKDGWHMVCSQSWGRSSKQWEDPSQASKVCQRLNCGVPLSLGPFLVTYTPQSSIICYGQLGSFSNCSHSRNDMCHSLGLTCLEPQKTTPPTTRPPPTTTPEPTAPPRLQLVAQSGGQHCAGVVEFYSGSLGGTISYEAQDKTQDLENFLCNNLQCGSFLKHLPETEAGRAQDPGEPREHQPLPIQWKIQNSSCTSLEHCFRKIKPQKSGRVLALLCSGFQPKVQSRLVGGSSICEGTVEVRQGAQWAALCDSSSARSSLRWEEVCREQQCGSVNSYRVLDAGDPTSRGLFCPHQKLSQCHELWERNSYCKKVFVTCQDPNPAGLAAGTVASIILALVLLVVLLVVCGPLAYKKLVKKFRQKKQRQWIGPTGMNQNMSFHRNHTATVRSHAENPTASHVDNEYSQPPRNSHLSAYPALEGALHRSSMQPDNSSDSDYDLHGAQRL
The assay is described as follows: cell-based or functional assay.

For assay [3], the target named is T3, fluorescent dye-labeled human CD5 protein (human, UniProt P06127 25-371, limits assumed, fluorescent dye label (dye and sites not stated)).
T3 construct: also called human CD5 antigen
T3 sequence (looked up): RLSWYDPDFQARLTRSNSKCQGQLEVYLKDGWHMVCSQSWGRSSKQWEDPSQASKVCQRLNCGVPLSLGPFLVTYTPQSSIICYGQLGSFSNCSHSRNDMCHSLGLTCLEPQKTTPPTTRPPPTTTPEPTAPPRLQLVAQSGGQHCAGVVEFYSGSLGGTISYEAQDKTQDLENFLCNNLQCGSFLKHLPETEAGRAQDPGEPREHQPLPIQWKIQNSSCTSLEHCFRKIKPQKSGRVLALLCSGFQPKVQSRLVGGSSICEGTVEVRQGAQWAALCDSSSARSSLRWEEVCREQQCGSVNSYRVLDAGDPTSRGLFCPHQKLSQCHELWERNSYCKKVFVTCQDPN
Kind of assay: flow cytometry: CT125A cells with graded fluorescent human CD5 protein; average of three experiments. The text has this: (§1) The relationship between the percentage of the fluorescence-labeled CAR+positive cells and the concentration of CD5 protein was fitted by Graphpad Prism software to calculate the affinity EC50 constant. This experiment was completed by Shanghai IASO Biotherapeutics Co., Ltd., and a total of three independent experiments were repeated.
(Flow cytometry measures light scatter and fluorescence of single cells or particles in a stream.)

The target in assay [4] is T3, fluorescent dye-labeled human CD5 …. The assay is described as follows: flow cytometry: CT125A cells with graded fluorescent human CD5 protein, percent labelled CAR+ cells fitted; 1st time.
From the text: as §1

For assay [5] the target is unchanged. The assay is described as follows: flow cytometry: CT125A cells with graded fluorescent human CD5 protein, percent labelled CAR+ cells fitted; 2nd time.
From the text: as §1

For assay [6] the target is unchanged. Kind of assay: flow cytometry: CT125A cells with graded fluorescent human CD5 protein, percent labelled CAR+ cells fitted; 3rd time.
From the text: as §1

For assay [7], the target named is T2, human CD5 expressed on cells. Kind of assay: flow cytometry on SUP-T1-Luc cells (called Kd in paragraph 233); average of three experiments. The procedure: (§2) The relationship between the percentage of fluorescence-labeled positive CD5⁺ target cells and different concentrations of CD5 tandem single-domain antibody was analyzed by fitting using Graphpad Prism software to calculate the EC50 constant. A total of three independent repetitions were performed in this experiment.

Assay [8] has the same target. Kind of assay: flow cytometry on CCRF-CEM-Luc cells (called Kd in paragraph 233); average of three experiments. The procedure:
as §2

Assay [9] has the same target. The assay is described as follows: flow cytometry on JVM-2-Luc-CD5 cells (called Kd in paragraph 233); average of three experiments. The procedure:
as §2

Assay [10] has the same target. Kind of assay: flow cytometry on MEC-1-CD5-Luc cells (called Kd in paragraph 233); average of three experiments. The method, then:
as §2

Assay [11] has the same target. The assay is described as follows: flow cytometry on SUP-T1-Luc cells, percent positive cells fitted (called Kd in paragraph 233); 1st time. The procedure: as §2
Assay [12] has the same target. Kind of assay: flow cytometry on SUP-T1-Luc cells, percent positive cells fitted (called Kd in paragraph 233); 2nd time. The procedure: as §2
For assay [13] the target is unchanged. The assay is described as follows: flow cytometry on SUP-T1-Luc cells, percent positive cells fitted (called Kd in paragraph 233); 3rd time. The method, then:
as §2

Assay [14] has the same target. Kind of assay: flow cytometry on CCRF-CEM-Luc cells, percent positive cells fitted (called Kd in paragraph 233); 1st time. The procedure: as §2
Assay [15] shares this target. Kind of assay: flow cytometry on CCRF-CEM-Luc cells, percent positive cells fitted (called Kd in paragraph 233); 2nd time. The method, then: as §2
The target is the same in assay [16]. Kind of assay: flow cytometry on CCRF-CEM-Luc cells, percent positive cells fitted (called Kd in paragraph 233); 3rd time. The method, then: as §2
For assay [17] the target is unchanged. Kind of assay: flow cytometry on JVM-2-Luc-CD5 cells, percent positive cells fitted (called Kd in paragraph 233); 1st time. The method, then:
as §2

Assay [18] has the same target. The assay is described as follows: flow cytometry on JVM-2-Luc-CD5 cells, percent positive cells fitted (called Kd in paragraph 233); 2nd time. The procedure:
as §2

For assay [19] the target is unchanged. Kind of assay: flow cytometry on JVM-2-Luc-CD5 cells, percent positive cells fitted (called Kd in paragraph 233); 3rd time. The procedure:
as §2

For assay [20] the target is unchanged. The assay is described as follows: flow cytometry on MEC-1-CD5-Luc cells, percent positive cells fitted (called Kd in paragraph 233); 1st time. The method, then:
as §2

The target is the same in assay [21]. The assay is described as follows: flow cytometry on MEC-1-CD5-Luc cells, percent positive cells fitted (called Kd in paragraph 233); 2nd time. The procedure:
as §2

Assay [22] has the same target. The assay is described as follows: flow cytometry on MEC-1-CD5-Luc cells, percent positive cells fitted (called Kd in paragraph 233); 3rd time. The method, then: as §2

In general, Kd refers to the concentration at which binding is half-saturated. The low end stands for higher affinity, the high end for lower affinity. Usually koff stands for the rate constant with which the complex falls apart. A lower koff goes with a long-lived complex. By kon is commonly meant the second-order rate constant of association. As a reminder, the EC50 is the concentration at which the effect is half-maximal. The low end stands for higher potency in that assay, the high end for lower potency in that assay.

B1: FHVH2 (#60 IgG) (Fc fusion)
chain: QVQLVESGGGLVQPGGSLRLSCAASGFTFSSYEMNWVRQAPGKGLEWVSYISSSGSTIYYADSVKGRFTISRDNAKNSLYLQMNSLRAEDTAVYYCARVAQREGDVWGKGTTVTVSS
notes: also called anti-CD5 IgG; not shown: human IgG4 Fc
Regarding B1, in assay [1], the dissociation constant Kd worked out at 8.32 nM, the off-rate constant (koff) is 0.000212 s⁻¹ and the association rate constant (kon) was determined as 25500 M⁻¹ s⁻¹.

B2: FHVH3VH1 CAR (other)
chain: QVQLVQSGAEVKKPGSSVKVSCKASGGTFSNYAISWVRQAPGQGLEWMGWISAYNGDTKYAQRLQGRVTMTTDTSTSTAYMELRNLRSDDTAVYYCARYESMSGQDIWGQGTLVTVSSGGGGSGGGGSGGGGSEVQLLESGGGLVQPGGSLRLSCAASGFTFSHSAMGWVRQAPGKGLEWVSSIYARGGYTYYADSVKGRFTISRDNSKNTLYLQMNSLRAEDTAVYYCARGYHLEYMVSQDVWGQGTLVTVSSFVPVFLPAKPTTTPAPRPPTPAPTIASQPLSLRPEACRPAAGGAVHTRGLDFACDIYIWAPLAGTCGVLLLSLVITLYCNHRNKRGRKKLLYIFKQPFMRPVQTTQEEDGCSCRFPEEEEGGCELRVKFSRSADAPAYQQGQNQLYNELNLGRREEYDVLDKRRGRDPEMGGKPRRKNPQEGLYNELQKDKMAEAYSEIGMKGERRRGKGHDGLYQGLSTATKDTYDALHMQALPPR
notes: Signal peptide left out; T2A remnant at the C-terminus not written; also called CT125A; CT125A injection
As for B2, in assay [2], the “cytotoxicity on CCRF-CEM-Luc cells, effector-target ratio 1:1” value amounted to 95.6%; the “cytotoxicity on CCRF-CEM-Luc cells, effector-target ratio 2:1” value was 96.9%; the “cytotoxicity on JVM-2-Luc-CD5 cells, effector-to-target ratio 5:1” value is 96.4%; the “cytotoxicity on JVM-2-Luc-CD5 cells, effector-to-target ratio 10:1” value was 98.5%. Moreover, in [2], the “cytotoxicity on MEC-1-CD5-Luc cells, effector-to-target ratio 1:1” value was determined as 97.7%; the “cytotoxicity on MEC-1-CD5-Luc cells, effector-to-target ratio 2:1” value was found to be 98.2%; the “cytotoxicity on SUP-T1-Luc cells, effector-target ratio 1:1” value came to 56.9%; the “cytotoxicity on SUP-T1-Luc cells, effector-target ratio 2:1” value is 91%. Further, the 50% effective concentration (EC50) in [3] was found to be 2.07 nM. The same molecule showed a concentration giving a half-maximal response (EC50) in assay [4] of 3.82 nM. For the same molecule, in [5], it took 1.22 nM to reach a half-maximal effect (EC50). The half-maximal effective concentration (EC50) in assay [6] came out at 1.18 nM.

B3: FHVH4 (#62 IgG) (Fc fusion)
chain: QVQLVQSGAEVKKPGESLRISCKASGYSFSNHWIGWVRQKPGKGLEWMGSVYPGDSDTRYSPSFQGHVTVSADKSMNTAYLQWSSLKTSDTAMYYCARGGTIDGDYGGRQDFWGQGTMVTVSS
notes: as for B1
In the case of B3, in [1], the dissociation constant Kd came out at 27.4 nM, the off-rate (koff) is 0.000309 s⁻¹ and the kon amounted to 12500 M⁻¹ s⁻¹.

B4: FHVH1 (#42 IgG) (Fc fusion)
chain: EVQLLESGGGLVQPGGSLRLSCAASGFTFSHSAMGWVRQAPGKGLEWVSSIYARGGYTYYADSVKGRFTISRDNSKNTLYLQMNSLRAEDTAVYYCARGYHLEYMVSQDVWGQGTLVTVSS
notes: also called #42 clone; anti-CD5 IgG; not shown: human IgG4 Fc
Consider B4, for which, in assay [1], the Kd turned out to be 2.9 nM, the off-rate (koff) came out at 0.000139 s⁻¹ and the kon turned out to be 48000 M⁻¹ s⁻¹.

B5: FHVH3VH1 (#61-42 IgG) (Fc fusion)
chain: QVQLVQSGAEVKKPGSSVKVSCKASGGTFSNYAISWVRQAPGQGLEWMGWISAYNGDTKYAQRLQGRVTMTTDTSTSTAYMELRNLRSDDTAVYYCARYESMSGQDIWGQGTLVTVSSGGGGSGGGGSGGGGSEVQLLESGGGLVQPGGSLRLSCAASGFTFSHSAMGWVRQAPGKGLEWVSSIYARGGYTYYADSVKGRFTISRDNSKNTLYLQMNSLRAEDTAVYYCARGYHLEYMVSQDVWGQGTLVTVSS
notes: as for B1
In assay [1], B5 displayed a Kd of 1.67 nM, a koff of 0.000189 s⁻¹ and an association rate constant (kon) of 113000 M⁻¹ s⁻¹.

B6: CT125A tandem single-domain antibody rabbit FC fusion protein RD125 61-42 rFc (Fc fusion)
chain: QVQLVQSGAEVKKPGSSVKVSCKASGGTFSNYAISWVRQAPGQGLEWMGWISAYNGDTKYAQRLQGRVTMTTDTSTSTAYMELRNLRSDDTAVYYCARYESMSGQDIWGQGTLVTVSSGGGGSGGGGSGGGGSEVQLLESGGGLVQPGGSLRLSCAASGFTFSHSAMGWVRQAPGKGLEWVSSIYARGGYTYYADSVKGRFTISRDNSKNTLYLQMNSLRAEDTAVYYCARGYHLEYMVSQDVWGQGTLVTVSS
notes: also called CD5 tandem single-domain antibody rabbit Fc fusion protein; not shown: rabbit Fc
Turning to B6, the EC50 in assay [7] turned out to be 4.02 nM; in assay [8], 2.99 nM; in assay [9], 0.64 nM; in assay [10], 1.14 nM; in [11], 2.72 nM; in [12], 4.58 nM. In addition, the EC50 in assay [13] is 4.75 nM; in assay [14], 3.04 nM; in assay [15], 2.54 nM; in assay [16], 3.39 nM; in assay [17] it was 0.64 nM; in assay [18], 0.56 nM. In addition, the EC50 stood at 0.72 nM in [19], 1.3 nM in assay [20], 0.92 nM in assay [21] and 1.2 nM in assay [22].

B7: FHVH3 (#61 IgG) (Fc fusion)
chain: QVQLVQSGAEVKKPGSSVKVSCKASGGTFSNYAISWVRQAPGQGLEWMGWISAYNGDTKYAQRLQGRVTMTTDTSTSTAYMELRNLRSDDTAVYYCARYESMSGQDIWGQGTLVTVSS
notes: also called #61 clone; anti-CD5 IgG; not shown: human IgG4 Fc
With B7, in assay [1], the affinity, expressed as Kd, was 3.96 nM; the off-rate constant (koff) came out at 0.000288 s⁻¹; the kon came out at 72800 M⁻¹ s⁻¹.
